Laboratory results reported in US7122624B2, “Parathyroid hormone receptor ligands” (The United States of America as represented by the …, priority 1999, dated 2006).

Legend:
rat PTH2 receptor = target: T1, rat PTH2 receptor (Rattus norvegicus, UniProt P70555); assay: cAMP accumulation in COS-7 cells transiently expressing the rat PTH2 receptor; format: cell-based
T1 construct: expressed in transfected cells; host or cells: COS-7 (transient)
Protocol: To express rat PTH2 receptor in cell culture, a rat hypothalamus cDNA library was prepared in the vector CDM7 amp as described. […] A clone was isolated from a single positive pool by colony hybridization using the same ^32P labeled probe.
(§1) Cell culture supplies were obtained from Life Technologies (Frederick, Md.) except for fetal bovine serum which was from Sigma (St. Louis, Mo.).
(§2) The constructs containing the cDNA sequences of the human PTH2 receptor and β-galactosidase have been previously described.
(§3) All peptides were purchased from either Bachem (Torrance, Calif.) or Peninsula Laboratories (Belmont, Calif.). The letters ‘b,’ ‘r’ and ‘h’ designate the peptide sequence as bovine, rat and human, respectively. […] [α-^32P]dCTP was purchased from ICN Biomedicals (Costa Mesa, Calif.). Bovine hypothalamic extract was prepared by acid extraction, gel-filtration and reverse-phase HPLC as previously described. […] Antagonist inhibitory potency was examined by measuring the concentration-dependence of rPTH(1–34)-stimulated cAMP accumulation in the presence and absence of antagonist.
(§4) Statistical comparison of two sample means was evaluated using the two-tailed Student's t-test. […] Antagonist inhibitory potency was quantified using the pA2, value, the negative logarithm of the concentration of antagonist that produces a two-fold decrease of agonist EC50. This was calculated using the following equation: pA2=((EC50/EC50′)−1)−log [antagonist]

human PTH2 receptor = target: T2, human PTH2 receptor (Homo sapiens, UniProt P49190); assay: cAMP accumulation in COS-7 cells transiently expressing the human PTH2 receptor; format: cell-based; conditions: COS-7
T2 construct: expressed in transfected cells; host or cells: COS-7 (transient)
From the text: as §1, §2, §3, §4

T1 sequence (P70555 25-546): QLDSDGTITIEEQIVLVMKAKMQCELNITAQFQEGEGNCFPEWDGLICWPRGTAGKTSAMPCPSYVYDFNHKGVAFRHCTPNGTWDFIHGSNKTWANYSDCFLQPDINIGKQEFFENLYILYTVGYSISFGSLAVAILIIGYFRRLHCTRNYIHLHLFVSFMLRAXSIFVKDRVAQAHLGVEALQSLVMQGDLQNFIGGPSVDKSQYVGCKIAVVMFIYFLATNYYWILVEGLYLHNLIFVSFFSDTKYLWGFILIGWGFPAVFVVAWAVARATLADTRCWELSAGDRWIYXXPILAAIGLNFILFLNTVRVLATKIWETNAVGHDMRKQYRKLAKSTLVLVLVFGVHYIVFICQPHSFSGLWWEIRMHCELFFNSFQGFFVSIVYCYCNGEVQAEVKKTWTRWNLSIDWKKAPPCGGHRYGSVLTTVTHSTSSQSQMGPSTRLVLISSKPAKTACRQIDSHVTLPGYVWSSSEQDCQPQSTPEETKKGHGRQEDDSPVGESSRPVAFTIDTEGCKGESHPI
T2 sequence (P49190 25-550): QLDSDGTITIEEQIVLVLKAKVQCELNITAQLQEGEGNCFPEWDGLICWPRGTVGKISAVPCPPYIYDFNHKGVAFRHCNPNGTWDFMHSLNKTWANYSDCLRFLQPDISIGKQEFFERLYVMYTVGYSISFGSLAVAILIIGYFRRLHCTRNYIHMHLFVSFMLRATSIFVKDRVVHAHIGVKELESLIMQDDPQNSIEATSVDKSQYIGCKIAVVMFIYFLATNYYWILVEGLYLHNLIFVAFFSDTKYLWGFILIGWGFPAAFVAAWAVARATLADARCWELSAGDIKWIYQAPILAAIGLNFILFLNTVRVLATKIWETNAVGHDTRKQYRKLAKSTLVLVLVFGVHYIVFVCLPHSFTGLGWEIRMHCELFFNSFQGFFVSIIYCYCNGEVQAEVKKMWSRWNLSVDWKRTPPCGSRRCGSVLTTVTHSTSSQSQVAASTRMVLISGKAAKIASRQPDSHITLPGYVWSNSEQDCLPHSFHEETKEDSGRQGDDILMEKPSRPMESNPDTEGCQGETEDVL

B1: rPTH(1-84): rat full-length parathyroid hormone (1–84), purchased (peptide)
peptide: AVSEIQLMHNLGKHLASVERMQWLRKKLQDVHNFVSLGVQMAAREGSYQRPTKKEENVLVDGNSKSLGEGDKADVDVLVKAKSQ
In the case of B1, the EC50 (rat PTH2 receptor; activation of adenylyl cyclase, COS-7, figures in brackets) is reported as 19 nM, the “−logEC50” value (rat PTH2 receptor; activation of adenylyl cyclase, COS-7, mean ± s.e.m. of three or four experiments) is reported as 7.72 ± 0.12 and the “Emax, % of response of rPTH2r to 3 μM rPTH(1-34)” value (rat PTH2 receptor; intrinsic activity, COS-7) is reported as 97 ± 5%. For the same molecule, the “Emax, % of response of hPTH2r to 1 μM hPTH(1-34)” value (rat PTH2 receptor; rat receptor response relative to human PTH2 receptor response measured in parallel) was 28 ± 4%, the EC50 (human PTH2 receptor; activation of adenylyl cyclase, figures in brackets) was 0.58 nM and the “−logEC50” value (human PTH2 receptor; activation of adenylyl cyclase, mean ± s.e.m. of three or four experiments) was 9.24 ± 0.05. The “Emax, % of response to 1 μM hPTH(1-34)” value (human PTH2 receptor; intrinsic activity) was 98 ± 4%.
